Changes are numbered by the printed parent chain. Square brackets hold non-standard residues; d marks the D form. GABA = NCCCC(=O)O

Holding throughout (assay): positional peptide library pulldown on immobilised Nb, LC-MS of supernatant; signal ratio to control GFP-Nb (1 = not captured, near 0 = captured)
The target of test [1] is T1, BC2T P1Q.
T1 construct: positional scanning library member
T1 peptide: Ac-QDRKAAVSHWQQ-NH2
Summed up: (§1)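 Unbound peptide left in supernatant after 1 h pulldown in PBS/0.01% CHAPS measured by reversed-phase LC-MS (8–30% eluent B gradient, 20 min).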

In test [2] the target is T2, BC2T V7Y.
T2 construct: positional scanning library member
T2 peptide: Ac-PDRKAAYSHWQQ-NH2
Summed up: as §1

Test [3] addresses T3, BC2T D2C(Abu) (SMILES …).
T3 construct: positional scanning library member
T3 peptide: Ac-P[GABA]RKAAVSHWQQ-NH2
Summed up: as §1

Test [4] concerns the target T4, BC2T R3E.
T4 construct: positional scanning library member
T4 peptide: Ac-PDEKAAVSHWQQ-NH2
Summed up:
as §1

The target in test [5] is T5, BC2T V7T.
T5 construct: positional scanning library member
T5 peptide: Ac-PDRKAATSHWQQ-NH2
Summed up:
as §1

Test [6] concerns the target T6, BC2T V7C(Abu) (also: Abu described as gamma-amino butyric acid).
T6 construct: positional scanning library member
T6 peptide: Ac-PDRKAA[GABA]SHWQQ-NH2
Summed up:
as §1

For test [7], the target named is T7, BC2T V7D.
T7 construct: positional scanning library member
T7 peptide: Ac-PDRKAADSHWQQ-NH2
Summed up: as §1

Test [8] deals with T8, BC2T K4S.
T8 construct: positional scanning library member
T8 peptide: Ac-PDRSAAVSHWQQ-NH2
Summed up: as §1

Test [9] addresses T9, BC2T R3P.
T9 construct: positional scanning library member
T9 peptide: Ac-PDPKAAVSHWQQ-NH2
Summed up: as §1

Test [10] concerns the target T10, BC2T V7F.
T10 construct: positional scanning library member
T10 peptide: Ac-PDRKAAFSHWQQ-NH2
Summed up: as §1

Test [11] addresses T11, BC2T K4N.
T11 construct: positional scanning library member
T11 peptide: Ac-PDRNAAVSHWQQ-NH2
Summed up:
as §1

For test [12], the target named is T12, BC2T R3W.
T12 construct: positional scanning library member
T12 peptide: Ac-PDWKAAVSHWQQ-NH2
Summed up:
as §1

Test [13] has as its target T13, BC2T A5C(Abu) (SMILES …).
T13 construct: positional scanning library member
T13 peptide: Ac-PDRK[GABA]AVSHWQQ-NH2
Summed up: as §1

Test [14] has as its target T14, BC2T D2W.
T14 construct: positional scanning library member
T14 peptide: Ac-PWRKAAVSHWQQ-NH2
Summed up: as §1

In test [15] the target is T15, BC2T D2K.
T15 construct: positional scanning library member
T15 peptide: Ac-PKRKAAVSHWQQ-NH2
Summed up:
as §1

Test [16] has as its target T16, BC2T K4H.
T16 construct: positional scanning library member
T16 peptide: Ac-PDRHAAVSHWQQ-NH2
Summed up:
as §1

Test [17] addresses T17, BC2T K4P.
T17 construct: positional scanning library member
T17 peptide: Ac-PDRPAAVSHWQQ-NH2
Summed up: as §1

In test [18] the target is T18, BC2T A6T.
T18 construct: positional scanning library member
T18 peptide: Ac-PDRKATVSHWQQ-NH2
Summed up: as §1

Test [19] addresses T19, BC2T D2S.
T19 construct: positional scanning library member
T19 peptide: Ac-PSRKAAVSHWQQ-NH2
Summed up: as §1

In test [20] the target is T20, BC2T H9E.
T20 construct: positional scanning library member
T20 peptide: Ac-PDRKAAVSEWQQ-NH2
Summed up: as §1

Test [21] concerns the target T21, BC2T Q11P.
T21 construct: positional scanning library member
T21 peptide: Ac-PDRKAAVSHWPQ-NH2
Summed up:
as §1

B1: BC2-NbR106E (VHH)
VHH: QVQLVESGGGLVQPGGSLTLSCTASGFTLDHYDIGWFRQAPGKEREGVSCINNSDDDTYYADSVKGRFTIFMDNAKDTVYLQMNSLKPEDTAIYYCAEARGCKRGEYEYDFWGQGTQVTVSS
notes: headlock mutant of BC2-Nb; immobilised on beads in this assay
As for B1, the ratio is 0.6 in [1]; 0.2 in test [2]; 0.2 in [3]; 1 in [4]; 0.2 in [5]; 0.3 in test [6]. Further, the ratio turned out to be 0.9 in [7]; 0.6 in [8]; 1 in [9]; 0.2 in test [10]; 0.8 in test [11]; 1.1 in test [12]. Moreover, the ratio is 0.1 in test [13]; 0.1 in test [14]; 0.1 in test [15]; 0.2 in test [16]; 1 in test [17]; 0.3 in test [18]. Moreover, the ratio in test [19] was 0.2.

B2: BC2 nanobody (VHH)
VHH: B1 VHH with E106R
notes: immobilised on beads in this assay; also called BC2-Nb; BC2 nanotrap (immobilised)
As to B2, the ratio in test [20] was found to be 0.2.

B3: BC2-NbR106S (VHH)
VHH: B1 VHH with E106S
notes: as for B1
For B3, in test [21], the ratio was 0.9.

The values are drawn from US20170137467A1 (CHROMOTEK, published 2017).
